This note sets out measurements from paper doi:10.1101/651463 (bioRxiv, 2019).

The target of one assay is C5aR1-βarr1 complex (Homo sapiens (Human). ; Rattus …, UniProt P21730;P29066). Nature of the assay: co-IP.
A further assay addresses V2R-βarr1 complex (Homo sapiens (Human). ; Rattus …, UniProt P30518;P29066). Nature of the assay: co-IP.

B1: Intrabody30 (scFv, V domains shown)
VH: EVQLVESGGGLVQPGGSLRLSCAASGFNVYSSSIHWVRQAPGKGLEWVASISSYYGYTYYADSVKGRFTISADTSKNTAYLQMNSLRAEDTAVYYCARSRQFWYSGLDYWGQGTLVTVSS
VL: DIQMTQSPSSLSASVGDRVTITCRASQSVSSAVAWYQQKPGKAPKLLIYSASSLYSGVPSRFSGSRSGTDFTLTISSLQPEDFATYYCQQYKYVPVTFGQGTKVEIK
For B1, the binding result with C5aR1-βarr1 complex and in the assay with V2R-βarr1 complex was “binds” in each case.
